{"source": "the nanobody polyreactivity screen of Harvey et al. (2022)", "data": [{"test": "yeast display, Sf9 membrane polyspecificity reagent, FACS + sequencing; frameworks hold sequencing errors", "procedure,_shortened": "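In a synthetic yeast display library (Saccharomyces cerevisiae BJ5465), nanobody expression was induced with galactose for 36–48 hours. FACS gates were set low and high (top ~1%) using anti-HA fluorescence for expression and streptavidin fluorescence for binding of the Sf9 membrane reagent. Each polyreactivity label is drawn from the gate of origin.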", "values": [{"sequence": "QVQLVESGGGLVQAGGSLRLSCAASGRTFRRNAMGWYRQAPGQERELVAGIRKRGGSTYYADSVKGRFTISRDNAKNTVYLQMNSLKPQDTAVYYCAAQPALTYRFYYWGQGTQVTVSS", "polyreactivity (PSR sort gate)": "high polyreactivity"}, {"sequence": "QVQVVESGGGLVQAGGSLRLSCAASGSIFDRNAMGWYRKAPGKERELVAGISRSGGSTNYADSVKGRFTISRDNAKNPVYLQMNSLNPEDTAVYYCAASRVVWVGRPWYQVRGDYWGQGTQVTVSS", "polyreactivity (PSR sort gate)": "high polyreactivity"}, {"sequence": "QVQLVESGGGLVQAGGSLRLSCAASGSTFKYYVMGWYRQAPGKEREFVAAITLRGGRTYYADSVKGRFTISRDNAKNTVYLQMNSLKPEDTAVYYCNAAYYLGWAHGTGRVEYDYWGQGTQVTVSS", "polyreactivity (PSR sort gate)": "high polyreactivity"}, {"sequence": "QVQLVESGGGLVQAGGSLRLSCAASGRIFDGYAMGWYIQAPGKERELVAAISSRGGRTYYADSVKGRFTISRDNAKNTVYLQMNSLKPEDSAVYYCAADDPYGECDYWGQGTQVTVSS", "polyreactivity (PSR sort gate)": "low polyreactivity"}, {"sequence": "QVQLEESGGGLVQAGGSLRLSCAPSVIIFPAYDMGWYRQAPGKERELVAAIRTSGTSTYYADSVKGRFTISRDNAKNTVYLEMNSLKPDDTAVYYCGAYQAYGGDYWGQGTQVTVSS", "polyreactivity (PSR sort gate)": "high polyreactivity"}, {"sequence": "QVQLVESGGGLVQAGGSLRLSCAASGRTYGYAMGWYRQAPGKERELVARNTWRGGSTSYADSVKGRFTISRDNAKNTVYLQMNSLKPEDTAVYYCAATYGTGRRSKYGYWGQGTQVTVSS", "polyreactivity (PSR sort gate)": "high polyreactivity"}, {"sequence": "QVQLVESGGGLVQAGGSLRLSCSASGRIFSLYAMGWYRQAPGKESELVAAITWSSGSTYYADSVKGRFTISRDNAKNTVYLQMNSLKPEDTAVYYCDARVFTLLGYSYEYWGEGTQVTVSS", "polyreactivity (PSR sort gate)": "low polyreactivity"}, {"sequence": "QVQLVESGGGLVQAGGSLRLICAASGRIFYINAMGWYRQAPGKERELVASITGSGGRTYYADSVKGRFTISRDNAKNTVYLQMNSLKPEDTAVYYCNADLYVGYLYYLYDYWGQGTQVTVSS", "polyreactivity (PSR sort gate)": "low polyreactivity"}, {"sequence": "QVQLVESGGGLVQAGGSRLSCAASGLIFIWYTMGWYRQAPGKERELVAAIDSSGGNTYYADSVKGRFTISRDNAKNTVYLQMNSLKPEDTAVYYCAKDVGHGAGNLMGYWGQGTQVTVSS", "polyreactivity (PSR sort gate)": "low polyreactivity"}, {"sequence": "QVQLVESGGGLVQAGGSLRLSCAASGLIFSYYVMGWYRPAPGKERELVAAINRSGGSTYYADSVKGRFTISRDNAKNTVYLQMNSLKPEDTAVYYCAAEKLGTNFEYWGQGTQVTVSS", "polyreactivity (PSR sort gate)": "high polyreactivity"}, {"sequence": "QVQLGESWACIVQAGGSLRLSCAASGIISYLYAMGLYRHAPGKERELVAVIRTSDAITYYADSVKGRFTISRDTAKNTVYLQMNSLKPEDTAFYYCGGRPRYYLYGYDYWGQGTQVTVSS", "polyreactivity (PSR sort gate)": "high polyreactivity"}, {"sequence": "QVQLVESGGGLVQAGGSLRLSCAASGGTFAVYAMGWYRQAPGKEREWVAAIDSGGRTNYADSVKGRFTISRDNAKNTVYLQMNSLKPEDTAVYYCAADGGGQYVRYDYWGQGTQVTVSS", "polyreactivity (PSR sort gate)": "high polyreactivity"}, {"sequence": "QVQLVESGGGLVQAGGSLRLSCAASGGTFSSNDMGWYRQAPGKERELVAAISWSGSSTDYADSVKGRFTISRDNAKNTVYLQMNSLKPDDTAVYYCNTDYWEITYSGVIWPEYDYWGQCTQVTVSS", "polyreactivity (PSR sort gate)": "low polyreactivity"}, {"sequence": "QVQLVESGGGLVQAGGSLRLSCAASGRIFNQYGMGWYRQAPGKERELVAAIRSGDSTNYADSVKGRFTISRDNAKNTVYLPMNSLKPEDTAVYYCASDRPGDYAGYDYWGQGTQVTVSS", "polyreactivity (PSR sort gate)": "low polyreactivity"}, {"sequence": "QVQLVESGGGLVQAGGSLRLSCAASGLTFDYYAMGWYRQAPGKERELVAAIDWSGGSTYYADSVKGRFTISRDNAMNTVYFQMNSLKPEDSAVYYCATESDDSGMDYWGQGTQVTVSS", "polyreactivity (PSR sort gate)": "low polyreactivity"}, {"sequence": "QVQLVESGGGLVQAGGSLRLSCAASGFTFKYYVMGWYRQAPGKERELVASISKRGGSTRYADSVKGRFTISRDNAKNTVYLQMNSLKPEDTAVYYCAARSKVHRWRKRYDYWGQGTQVSVSS", "polyreactivity (PSR sort gate)": "high polyreactivity"}, {"sequence": "QVQLVESGGGLVQAGGSLSLSCAASGSIFGIYAMGWYRQAAGKDRELVATINSRGTTNYADSVKGRFTISRYNAKNTVYLQMNSLKPEDTAVYYCAARFSTYRGKLKGYEYWGQGTQVTVSS", "polyreactivity (PSR sort gate)": "high polyreactivity"}, {"sequence": "QVQLVESAGGLDQAGGSLRLSCAASGFTFVAYSMGLYRQAPGKERELVADISRGGSTFYADSVKGRFTISRDNAKISVYLQKNSLKPEDSAVYYCASTYIHSYGKFYYWGQGTQVTVSS", "polyreactivity (PSR sort gate)": "low polyreactivity"}, {"sequence": "QVQLVESGGGLVQAGGSLRLSCAASGRTFPIYAMGWYRQAPGKERELVAAITYSGGSTYYADSVKGRFTISRDNAKNTVYLQMNSLKPEDTAVSYCAVDGTKPYWHQRYDYWGQGTLVTVSS", "polyreactivity (PSR sort gate)": "low polyreactivity"}, {"sequence": "QVQLVESGGGLVQAGGSLRLSCAASGSIFIVNAMGWYRPAPGKERELVAAISRSGGRTYYADSVKVRFTISRDNAKNTVYLQMNSLKPEDTAVYYCNARSRARKVAYDYWGQGTQVTVSS", "polyreactivity (PSR sort gate)": "high polyreactivity"}, {"sequence": "QVQLVESGGGLVQAGGSLRLSCAASGYTFTIYAMGWSRQAPGKERESVASISIDGSTYYADSVKGRFTISRDNAKNTVYLQMNSLKPEDTAGYYCAADYYYYNPGFDYWGQGTQVTVSS", "polyreactivity (PSR sort gate)": "low polyreactivity"}, {"sequence": "QVQLVESGGGLVQAGGSLRLSCAASGSIFRINAMGWYRQAPGKERELVAAISWSGGSTYYADSVKGRFTISRDNAKNTVYLQMNSLKPEDTAVYYCAAVVSKSSFDYWGQGTQVTVSS", "polyreactivity (PSR sort gate)": "low polyreactivity"}, {"sequence": "QVQLVESGGGLVQAGGSLRLICAASGYTFALYAIGWYRQATGKERELVAAITDSDGSTYADSVKGRFTISRDNAKNTFYLQMNSLKQEDTAVYYCAARDPHLQGYSYLSYLTMDYWGQGTQVTVSS", "polyreactivity (PSR sort gate)": "low polyreactivity"}, {"sequence": "QGQLVESGGGLVQAGGSLRLSCAASGSIFGPYVMGWYRPAPGTERELVASITSSGGSTYYADSVKGRFTISRDNAKNTVYLQMNSLKPEDTAVYYCAATRSFSGGYGYVSYDYWGQGTQVTVSS", "polyreactivity (PSR sort gate)": "high polyreactivity"}, {"sequence": "QVQLVESGGGLVQAGGSLRLSCAASGSIFLINAMGWYRPAPGKERELVAAITWSGGRTYYADSVKGRFTISRDNAKNTVYLQMNSLKPEDTAVYYCATRKRRSRPPTYDYWGQGTQVTVSS", "polyreactivity (PSR sort gate)": "high polyreactivity"}, {"sequence": "QVQLVESGGGLVQAGGILRLSCAASGLIFGYYDMGWYRQARGKEREFVAGITYRGSSTYYADSVKGRFTISRDNAKNTVYLQMNSLKPEDTAVYYCAKYKRKKLTTNYYYWGQGTQVTVSS", "polyreactivity (PSR sort gate)": "high polyreactivity"}, {"sequence": "QVQLVESGGGLVQAGGSLRLSCAASGSIFGVNYMGWYRQAPGKERELVAGLSSSGGSTYYADSVKGRFTISRDNAKNTVYLQMNSLKPEDTAVYDCAATQSRYYSDDPYYYWGQGTQVTVSS", "polyreactivity (PSR sort gate)": "low polyreactivity"}, {"sequence": "QVQLVASGGGLVHAGGSLRLSCAASGRIFTHNAMGWSRQAPGKEREMVAAITSGGRTTYADSVKGRFTISRDNAKNTVYFQMNSLKPEDTAVYYCNADTGLGSLDFDKRDYWGQGTQVTVSS", "polyreactivity (PSR sort gate)": "low polyreactivity"}, {"sequence": "QVQLVESGGGLVQAGGSLRLSCAASGRIFARYAMGWYRQAPGKERELVAAITVSGDNTYYADSVKGRFTISRDNAKNTVYLQMNSLKPEDTAVYYCNAYFLVHYRRLRPYDYWGQGTQVTVSS", "polyreactivity (PSR sort gate)": "low polyreactivity"}, {"sequence": "QVQLVESGGGLVQAGGSLRLICAASGTFDHYAMGWDRQAPGKERELVAAISWSGGSTYYADSVKGRFTISRDNAKNTVYLQMNSLKPEDTAVYYCNAETDGYFESNDFDYWGQGTQVTVSS", "polyreactivity (PSR sort gate)": "high polyreactivity"}, {"sequence": "QVQLVESGGGLVQAGGSLRLSCAASGRIFDWNAVGWYRQAPGKERELVAAITWTGGTTYYADSVKGRFTISRDNAKNTVYLQMNSLKPEDTAVYYCAKRGGNQFAYRARSFDYWGQGTQVTLSS", "polyreactivity (PSR sort gate)": "low polyreactivity"}]}]}
